Measurements: US20240101663A1 (BIOTROY THERAPEUTICS, published 2024)

T1: CCDC112 on HCT116 tumor cells (including HCT116 cells stably overexpressing CCDC112) (human, UniProt Q8NEF3 1-446)
T1 construct: also called CCDC112 on the surface of tumor cells; HCT116-CCDC112
T1 sequence: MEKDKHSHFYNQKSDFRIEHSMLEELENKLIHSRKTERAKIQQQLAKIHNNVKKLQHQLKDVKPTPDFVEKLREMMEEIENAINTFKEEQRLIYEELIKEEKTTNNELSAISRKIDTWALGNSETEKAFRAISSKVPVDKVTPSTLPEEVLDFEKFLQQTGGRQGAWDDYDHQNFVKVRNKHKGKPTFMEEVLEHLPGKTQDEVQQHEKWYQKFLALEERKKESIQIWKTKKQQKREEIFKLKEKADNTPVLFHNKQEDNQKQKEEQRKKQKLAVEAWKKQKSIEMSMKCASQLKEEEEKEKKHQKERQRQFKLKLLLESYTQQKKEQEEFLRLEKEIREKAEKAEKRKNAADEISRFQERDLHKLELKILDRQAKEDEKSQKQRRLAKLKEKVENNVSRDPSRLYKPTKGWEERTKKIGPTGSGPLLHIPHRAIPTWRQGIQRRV

T2: CD30 extracellular region protein fragment labeled with hFc (UniProt P28908 19-385)
T2 construct: extracellular domain; Bought from ACRO Biosystems or Sino Biological; not shown: human Fc label (hFc)
T2 sequence (looked up): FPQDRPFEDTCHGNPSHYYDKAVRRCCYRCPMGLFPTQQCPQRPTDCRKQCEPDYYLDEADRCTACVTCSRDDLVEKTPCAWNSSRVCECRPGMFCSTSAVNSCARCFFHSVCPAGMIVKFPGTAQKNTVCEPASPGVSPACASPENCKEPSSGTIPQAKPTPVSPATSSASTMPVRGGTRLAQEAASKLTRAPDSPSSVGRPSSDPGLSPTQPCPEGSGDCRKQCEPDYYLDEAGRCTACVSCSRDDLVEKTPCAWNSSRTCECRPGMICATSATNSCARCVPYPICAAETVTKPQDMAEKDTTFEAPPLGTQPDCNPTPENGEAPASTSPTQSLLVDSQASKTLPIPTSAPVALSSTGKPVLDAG

B1: CCDC112 recombinant protein (coiled-coil domain-containing protein 112) (ligand)
chain: MEKDKHSHFYNQKSDFRIEHSMLEELENKLIHSRKTERAKIQQQLAKIHNNVKKLQHQLKDVKPTPDFVEKLREMMEEIENAINTFKEEQRLIYEELIKEEKTTNNELSAISRKIDTWALGNSETEKAFRAISSKVPVDKVTPSTLPEEVLDFEKFLQQTGGRQGAWDDYDHQNFVKVRNKHKGKPTFMEEVLEHLPGKTQDEVQQHEKWYQKFLALEERKKESIQIWKTKKQQKREEIFKLKEKADNTPVLFHNKQEDNQKQKEEQRKKQKLAVEAWKKQKSIEMSMKCASQLKEEEEKEKKHQKERQRQFKLKLLLESYTQQKKEQEEFLRLEKEIREKAEKAEKRKNAADEISRFQERDLHKLELKILDRQAKEDEKSQKQRRLAKLKEKVENNVSRDPSRLYKPTKGWEERTKKIGPTGSGPLLHIPHRAIPTWRQGIQRRV
notes: also called CCDC112 protein; full-length CCDC112 protein

Tests used:
[1] = target: B1; assay: bio-layer interferometry (ProbeLife Gator), antibody (200 nM) immobilized, antigen 15 nM to 1.875 nM
Procedure: The dissociation constant (KD) of the antibody of the invention binding to human CCDC112 was determined using bio-layer interferometry on ProbeLife Gator according to conventional procedures.

[2] = target: T1, CCDC112 on HCT116 tumor cells …; assay: flow cytometry on HCT116 cells overexpressing CCDC112; table gives no unit, unit from the x axis 'Abs conc. nM'
Procedure: Further, the specific binding of the CCDC112 antibody to the antigen was verified by flow cytometry. The HCT116 cell line overexpressing CCDC112 was constructed by stable transfection of liposome, and the cells and the CCDC112 antibody were co-incubated, the unbound antibody was washed away, and then the anti-mouse secondary antibody (FITC modified) was used for flow cytometry and the percentage of cells that stain positive was analyzed.

[3] = target: B1; assay: ELISA, coated full-length CCDC112 protein, antibody titrated; table gives no unit, unit from the x axis Ab(nM)
[4] = target: T3, LTBR-hFc (LTBR extracellular region protein fragment labeled with hFc) (UniProt P36941 31-227); assay: ELISA at pH 6, coated CCDC112 gradient, LTBR-hFc 0.5 µg/mL; table gives no unit, unit from the x axis; target from the plot title (legend names CD30)
T3 construct: extracellular domain; Bought from ACRO Biosystems or Sino Biological; also called lymphotoxin-beta receptor; TNFRSF3
T3 sequence (P36941 31-227): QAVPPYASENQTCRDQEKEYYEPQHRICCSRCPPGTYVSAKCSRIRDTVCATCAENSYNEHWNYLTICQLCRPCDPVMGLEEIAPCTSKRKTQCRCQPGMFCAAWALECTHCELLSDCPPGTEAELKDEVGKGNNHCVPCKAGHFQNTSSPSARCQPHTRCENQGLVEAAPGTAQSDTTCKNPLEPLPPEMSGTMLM
Procedure: (§1) Specifically, a special plate for ELISA (costar, ME, USA) was used. Firstly, different concentrations of CCDC112 recombinant proteins were dissolved in 100 μL of ELISA coating solution (Solarbio, Beijing, China) to coat the plate, and the negative control was coated with 100 μL of coating solution without protein. The plate was coated overnight at 4° C. After washing with PBST, 100 μL of 5% BSA dissolved in PBS (VWR, PA, USA) was used for blocking in the incubator at 37° C. for 90 min. […] The above-mentioned receptor protein was labeled with hFc (P-Fc) and binding was carried out in the incubator at 37° C. for 60 min. After washing with PBST, a specific anti-human Fc fragment antibody (Abcam, MA, USA) diluted in PBS was used for incubation and binding at 37° C. for 30 min. After washing with PBST, chromogenic solution (Sangon, Shanghai, China) was added at 100 μL per well for color development and reacted in an incubator for 5-30 min, and then 50 μL of stop solution (Sangon, Shanghai, China) was added, and chromogenic reading was then carried out under a microplate reader (Thermo Fisher, MA, USA) at 450 nm.

[5] = target: T2, CD30 extracellular region protein …; assay: ELISA at pH 5.5, coated CCDC112 gradient, CD30-hFc 0.5 µg/mL; table gives no unit, unit from the x axis; target from the plot title (legend names LTBR)
Procedure: as §1

[6] = target: T3, LTBR-hFc (LTBR extracellular region …); assay: ELISA at pH 7.5, coated CCDC112 gradient, LTBR-hFc 0.5 µg/mL; ambiguous fit far outside the range shown, curve nearly flat; table gives no unit, unit from the x axis; target from the plot title (legend names CD30)
Procedure: as §1

[7] = target: T2, CD30 extracellular region protein …; assay: ELISA at pH 6.5, coated CCDC112 gradient, CD30-hFc 0.5 µg/mL; table gives no unit, unit from the x axis; target from the plot title (legend names LTBR)
Procedure: as §1

[8] = target: T2, CD30 extracellular region protein …; assay: ELISA at pH 6, coated CCDC112 gradient, CD30-hFc 0.5 µg/mL; table gives no unit, unit from the x axis; target from the plot title (legend names LTBR)
Procedure: as §1

[9] = target: T2, CD30 extracellular region protein …; assay: ELISA at pH 7, coated CCDC112 gradient, CD30-hFc 0.5 µg/mL; value lies above the highest concentration shown, curve has no plateau; table gives no unit, unit from the x axis; target from the plot title (legend names LTBR)
Procedure: as §1

[10] = target: T3, LTBR-hFc (LTBR extracellular region …); assay: ELISA at pH 6.5, coated CCDC112 gradient, LTBR-hFc 0.5 µg/mL; table gives no unit, unit from the x axis; target from the plot title (legend names CD30)
Procedure: as §1

[11] = target: T3, LTBR-hFc (LTBR extracellular region …); assay: ELISA at pH 5.5, coated CCDC112 gradient, LTBR-hFc 0.5 µg/mL; table gives no unit, unit from the x axis; target from the plot title (legend names CD30)
Procedure: as §1

Row | Kd [1] | EC50 [2] | EC50 [3] | EC50 [4] | EC50 [5] | EC50 [6] | EC50 [7] | EC50 [8] | EC50 [9] | EC50 [10] | EC50 [11] | Binder
1 | 468 pM | 980 pM | 64.4 pM | – | – | – | – | – | – | – | – | monoclonal antibody S-78-02 (antibody, V domains shown, Mouse hybridoma monoclonal antibody raised against CCDC112 protein and detected with an anti-mouse secondary antibody; also called CCDC112 antibody; CCDC112 monoclonal antibody) VH: QVQLQQSGPELVKPGASVKIPCKTSGYSFTDYNIDWVKQGLGESLEWIGDINPNYGGTMYNQKFKGKATLTVDKSSNTAYMELRSLTSEDTAVYYCAHDEFIYWGQGTLVTVSA VL: DIQMNQSPSSMFASLGERVTITCRASQDINTYLSWIQRKPGKSPKTLIYRANRLVDGVPSRFSGSGSGQDYSLTISSLEYEDMGIYYCLQYDEFPHTFGGGTKLEIK
2 | – | – | – | 1.26 µg/mL | 2.11 µg/mL | ~18100 µg/mL | 4.61 µg/mL | 1.91 µg/mL | 16.1 µg/mL | 1.94 µg/mL | 0.922 µg/mL | B1
